According to the DeepSol protein solubility set:

test: soluble on expression in E. coli; label from the status in PepcDB or PDB records

**Q.** With “GEDPAIQVTGARGASVDMSTLDAVTTALDKEHLSHKSIAFENGSILVRFNDTDTQISARDVISEALGKDKIVALNLAPSTPDWLEAIGASPLKLGLDLRGGVHFLMEVDMDAAMEKLVGQQEEAFRSELRDAKIRYRAIRPSGKEGVEVLLRDEEQLAEAKRTLTKNHPDMNFVESDSNGRYALIATFTEQRLQEIRNYAVEQNITILRNRVNELGVAEPLVQRQGASRIVVELPGVQDTARAKEILGATATLEFREVDDKADLAAAANGRAPAGSEIKQDRDGRPVVLKKRVILSGASITDASSSVDEYGRPQVNISLDSEGGNKMSAFSKKNIGKLMATVFAEYKDSGRKTPEGKVILTKHEEVINQATIQSALGRNFRITGIDSAAEAHN” as the sequence, how does the “soluble on expression in E. coli” value read?
**A.** The value was “not soluble”.

**Q.** With “SNALNLPYDEHADAWTQVKKALAAGKRTHKPTLLVFGANWCTDCRALDKSLRNQKNTALIAKHFEVVKIDVGNFDRNLELSQAYGDPIQDGIPAVVVVNSDGKVRYTTKGGELANARKMSDQGIYDFFAKITE” as the sequence, how does the “soluble on expression in E. coli” value read?
**A.** The value was “soluble”.

**Q.** Which “soluble on expression in E. coli” value does the source give for “MSMKTTQEINKEDEELCNESKKFMDVYYDVMDRKREKIGFLYTQVSNAVWNGNPINGYDSICEFMKALPSTQHDIQSLDAQRLPEGVTGDMSGGMLLNVAGAVTVDGDSKRAFTQTLLLGVEDGKYKVKSDRFRYVD” here?
**A.** The value was “not soluble”.

**Q.** With “MGSDKIHHHHHHMTAKTFELGPGYTISRVIRGGWQLAGGHGAIDRSQAVTDLIATFDAGIWTYDCADIYTGVEELIGAARLRLASERGLDVAAKMKVHTKLVPDLERLATISRDYIRGIVEQSLRRLKTERLDLVQFHWWDYDQPRYVEAMGWLDELRREGKVRNLGTTNFDTPRLAEILAAGIPLVSQQLQYSVLDQRPAHSLAELAAKNGVSFLCYGSVAGGFLSDKWLGVAEPATPLENRSLVKYKLIIDDFGGWDLFQQLLQALKAVGDRHGVDIATIASAWVLKQPRVAAVIVGARNQAHALANARIMDVALDADDRAKIAAVIAQSQGPLGDVYTLERDRHGRHGSIMHYNLNAGRT” as the sequence, how does the “soluble on expression in E. coli” value read?
**A.** Its value is “not soluble”.

**Q.** With “MGRPRYLAYTRQIAMKSWRKAVVGTQATVGDAIAAIESGSIQIALVLDDQNRLLGVVTDGDVRRGLLRGIPLTGLATDIMNRVPVSAPATLSRDDRLHLMRQKSIKQLPLVDEGGHLVVVETLDELLEPRHYANPVLIMAGGLGERLGALTRDVPKPMLNVGGRPLLETIVRNVVQQGFRNIYISVNYKAETIKDYFADGAAFGANIQYVHETERLGTAGALGLFPAPPDLPMIVTNGDILTTINYGALLDFHNGTPAEATMAVREHKVHVPYGVVSTSDGFLQAIREKPTESWFVSAGIYVIGSSVFGHVAPGVSIDMPTVLERVIAGKGRVAVYPIREYWLDIGRLEDFEQAHAEFHEVFPLEHHHHHH” as the sequence, how does the “soluble on expression in E. coli” value read?
**A.** Its value is “soluble”.

**Q.** With “QRKNNNKRWYFTREQLENSPSRRFGLDPDKELSYRQQAANLLQDMGQRLNVSQLTINTAIVYMHRFYMIQSFTRFHRNSVAPAALFLAAKVEEQPKKLEHVIKVAHTCLHPQESLPDTRSEAYLQQVQDLVILESIILQTLGFELTIDHPHTHVVKCTQLVRASKDLAQTSYFMATNSLHLTTFSLQYTPPVVACVCIHLACKWSNWEIPVSTDGKHWWEYVDATVTLELLDELTHEFLQILEKTPNRLKRIWNWRACQAAKKT” as the sequence, how does the “soluble on expression in E. coli” value read?
**A.** Its value is “soluble”.

**Q.** For “MKAVVPTGKIYLGSPFYSDAQRERAAKAKELLAKNPSIAHVFFPFDDGFTDPDEKNPEIGGIRSMVWRDATYQNDLTGISNATCGVFLYDMDQLDDGSAFEIGFMRAMHKPVILVPFTEHPEKEKKMNLMIAQGVTTIIDGNTEFEKLADYNFNECPSNPVRGYGIY”, which “soluble on expression in E. coli” value is on record?
**A.** Its value is “soluble”.

**Q.** With “IRRVLVPVDTSEERARNQAKYLTSLPNIPDSVEATVLFVFPHQDYKGAPSHDFEEVDAAVTAAEHLEAKGISVERVAVGGEVGRKILDAATDRDADSIVIGGRKRSGIANVLLGGTTQDIMLAAERPVTLTG” as the sequence, how does the “soluble on expression in E. coli” value read?
**A.** The value was “not soluble”.

**Q.** With “MGSDKIHHHHHHMITEELQKLYQEYTGVPVENITELPSSGSNRRYFRLTGAKTLIGVCGTSVEENDAFLYMAAHFRKSGLPVPEVHIVSENKSYYLQEDLGDTLLFHAIEKGRATSVFSEEEKELLRKTVRLLPAIQFAGADGFDFSRCYPQPEFNQRSILWDLNYFKYCFLKATGMEFQEDKLEDDFQKMSDVLLRSSSATFMYRDFQSRNVMIKDGEPWFIDFQGGRKGPFYYDVASFLWQAKAKYPDSLRQELLKEYIDALRKYQPIDEPYFYSQLRHFVLFRTLQVLGAYGFRGYFEKKPHFIQSVPFAIQNLRDLLKEAYPEYPYLCNVLRELTELKQFTDDLKKRQLTVKVMSFAYKKGIPDDPTGNGGGYVFDCRAVNNPGKYERYKPFTGLDEPVISFLEEDGEILRFLDSVYALVDASVKRYMERGFSNLSVCFGCTGGQHRSVYSAQHLAEHLNRKFGVKVELVHREQNIERTFEATV” as the sequence, how does the “soluble on expression in E. coli” value read?
**A.** The value was “not soluble”.

**Q.** Which “soluble on expression in E. coli” value does the source give for “MSLDVSEGGVTVSVPTASGGGEGAADDVFFNATQELNRDLTVATLAAFREREPRAASYLDAMTASGIRGVRAANAGWDVTMADVDADAVELATSNLARNGLDGEVVARDANSLLHDHDRVLDVVDIDPFGSPMPFADAAFANARNLVCVTATDTAPLCGAHFESGVRKYSATPRNTNYHAEMGLRILLGALARTAARYDVGVTPILSHVSDHYVRTYLELDHRATDANAAVEQVGHVYHCQQCLSRDHEYGLVAAPRAECPRCGGHQVLTAGPLWLGPAHEEAFAASVREQLTREMGEASQAFHLLQTIEGELHEPTHYDQHRLYSQWGEPAVGMAEFLDQLRDAGLRASRTHFGGTTFKTDGGLAEVEAAVLEGHHHHHH” here?
**A.** Its value is “not soluble”.

**Q.** Which “soluble on expression in E. coli” value does the source give for “MAHHHHHHMSTEEQQVTQGTAHAPAPTTVKNKANSYYYWHQHEKDRAKVGDVAPMPTPYLVSKDDARAMAAPAVPTVSVSKYSWCDGDKFVSVYIDTVVPEGGTLDESSIEATFTGNSFKVTFATADEAGRTRAKSLSIRLSKRIDKDRSSTKVKPKTQQILVRLAKKVESVWLDLEGEASDQDSAADSEAADAE” here?
**A.** Its value is “soluble”.

**Q.** With “MTARARSALLDAEHIVGYTTYVELLPDEITEGADDIYNTPMCGEVSRTEEAIDRALAGNDVAIIGSGDPNVYALAGLALEIIESKGATATMLDFDVVPGVP” as the sequence, how does the “soluble on expression in E. coli” value read?
**A.** The value was “not soluble”.

**Q.** For “MSVIDIHCHTAGVGAGGSGCFISTRLRESWRYRFYLASFGVTDAELEREGDGLVLRRLAERLAVSTRVQAAVVLALDGAIDSRGNLDQTRTELFIPNDFLSGQCRRYPNLLFGASVNPLRPDALDRLDAAAAASAVLVKWLPSIQGTDPADRRLVPFYRRLAELGLPLLTHTGEEQSFTRADNSLSDPNRLRLPLDEGVTVIAAHCATSGRSEGQRNRHRLLALFAAYPNLHADISSLTQVNRLGHLQWVLKHRELHERLLYGTDMPLPATALTSPWFHLFSLGPFAARRLAAIRNPWDRDVALKLALGMPEQILHNAAGLLRLALEHHHHHH”, which “soluble on expression in E. coli” value is on record?
**A.** The value was “not soluble”.

**Q.** Which “soluble on expression in E. coli” value does the source give for “MGGSHHHHHHGMASALDCCTENACSKPDDDILDIPLDDPGANAAAAKIQASFRGHMARKKIKSGERGRKGPGPGGPGGAGVARGGAGGGPSGD” here?
**A.** Its value is “not soluble”.

**Q.** For “MAGPSLVEVAAAVLIRPDDSFLLACRPDGKPYAGYWEFPGGKIETGESPLQALARELDEELGITVRQATPWLTRTFSYPHATVRLRFYRVTDWHGELTPRERQQFAWQTAENITVSPLLPANTPILRSLALPSIYAVTRTVETDIEASLLSIGQTLGNGVKLLQIRQKAMSHDQLEHFSRTALQLARSYQATVLINENIPLAQTLQADGVHLTAAQLRSLHSRPAVNWCGASCHNEQELQRAERLGVDFVTLSPVQPTLSHPGAAALGWKEFAALIRDYPLPVYALGGLLPADLETAREYGAHGIAMMRSILEHHHHHH”, which “soluble on expression in E. coli” value is on record?
**A.** The value was “not soluble”.

**Q.** With “MSLRITGERIYLRPFQIIDANQKLAFHLANKAFFEGYSMERDDRFYTIEEQQSLISRLEDFAASDVEYYYGIFLNDTDELIGTINLFSILRESLQSAFIGYFLDKKHNGNGYATEAVQLIVDFGFDILGLHRIEAGVMPKNERSKQVLLKAGFHLEGLAVQNVRINGTWEDHQVLAIINPGDEGHHHHHH” as the sequence, how does the “soluble on expression in E. coli” value read?
**A.** Its value is “soluble”.

**Q.** For “MTSIQQRAELQRRIWQIANDVRGTVDGWDFKQYVLGALFYRFISENFAAHMEAGDDGIRYAELPDSVITPELKDDAIKTKGYFIYPSQLFANVVARANTNDSLNTDLAAIFTAIESSANGYPSEQDIKGLFADFDTTSNRLGNTVKDKNQRLAAVLKGVAELDFGPFDDAHIDLFGDAYEFLISNYAANAGKSGGEFFTPQHVSRLIARLALHGQKSVNKIYDPACGSGSLLLQAKKPFDERLIEDGFFGQESNHTTYNLARMNMFLHNINYDKFNIQLGNTLLEPHFADEKPFDAIVSNPPYSVKWIGSDDPTLINDERFAPAGVLAPKSKADFAFVLHALHYLSAKGRAAIVCFPGIFYRGGAEAKIRQYLVDNNYVETVIALAPNLFFGTTIAVNILVLSKHKPDTTTQFIDASALFKKETNNNVLLDEHIEQIMAVFASKEEVPHVAQSVPLERIAANNYNLSVSSYVEARDTREVVDIAQLNAELKTTVARIDELRKQIDAIVAEIEGEEDEA”, which “soluble on expression in E. coli” value is on record?
**A.** Its value is “soluble”.

**Q.** With “MPTYKLSYFDVRAYAEPARILFHLAGVPFDDHRFPHGDGTWEKLKDKTPFGQVPVLYVDGFEIPQSAAIIRYLANKFGYAGKTPEEQAWADAIVDQFKDFMSLFREFKLAQKAGKSDVEIAKVASEVAIPARDSYFEIITNLLEKSKSGFLVGDGLTFADIVVVESLTNLEKVHFFDASEHPKLAALREKIYAIPAIKSWVDIRPDTIY” as the sequence, how does the “soluble on expression in E. coli” value read?
**A.** The value was “not soluble”.

**Q.** Which “soluble on expression in E. coli” value does the source give for “MGSDKIHHHHHHLILNWPQSDSEHLMVSSEQMQNIEKEMFSMGMPVEALMEKVGIGISSWILDRHGLIENGAIVLVGPGHNGGDGLVVARELYMAGVDISIWCPFPLKKQLTQKHFHYAMQIGIENLERKPDSNSDLLWIEALFGLGQSRIISDEIIRLLNSKKTFSPEKLISIDVPAGLDSDNGNIVSNTSCKASSSLTLGLFKSGLIQDSAIDYVGNLERVDIGIPDKILAGFPETQPLRISFSDLSTFVWPMLSKSKSKYQRGRVLVIAGSEKYRGAASLALNGALASGVGSVSAFLPNSVSSALWITHPEVLLLGDLTAFQDGSSDFSKVLNEVDLNRFDSILLGPGLGIADEKDCFGSDLQDFKGLLVLDADAINRLSITSKGWEWLNDREGPTWLTPHLEEFKRLFPLIDCSNPLKAGIEAAKTCSSSVLLKCAHSVISDPEGKTWQIGQVNSSVARTGLGDVLAGFVSGMGASGLASDKKLDTSLLAASALMHAYAGAFSIKGSTASTICTFLGELIKKEST” here?
**A.** Its value is “not soluble”.

**Q.** Which “soluble on expression in E. coli” value does the source give for “MSDSDAMTDPNAVSYSNAIVVLCTAPDEASAQNLAAQVLGEKLAACVTLLPGATSLYYWEGKLEQEYEVQLLFKSNTDHQQALLTYIKQHHPYQTPELLVLPVRDGDKDYLSWLNASLL” here?
**A.** Its value is “not soluble”.

**Q.** Which “soluble on expression in E. coli” value does the source give for “MKWRTRVTELLGITYPIIQGGLAYLAYADLAAAVSNAGGLGQITAMSLDGPEQLREEIRKVKEKTDRPFGVNFAIGQHGRPFAHMLEAALDEGVPVVSVTGGNPAPFFEQLKGTNVKKLVLVAAVRQAVKAEELGADAVMVVGQEGGGHLGKYDTGTFVLIPKVVDSVSIPVIASGGIADGRGLMAALALGAEGIEMGTRFIATKECVHAHPAYKEMILNATENDTVIIKRSLGAPGRVLANAWAEKILEIERQGGTYDDLKEYISGEANRRFIYEGKVDEGFAWAGQAIGLIHDVPSVAELFARMIEEAEQIRRRWAN” here?
**A.** The value was “not soluble”.

**Q.** With “MISAQSLTRPQLRRQLRKARRVLTRSQQRAAARGLYQQLAQHPLFRRARHVSLYLPMDGEIDPRLLLREAQRRGKATYLPVLNAWPRTRMVFQRVRPGEKFIPNRFRIPEPRINRTKQRPVWALDLVLMPLVGFDDEGGRLGMGGGFYDRSLAYLARRKTWRKPALLGLAHECQKVDRLAQAIWDVPLQGTVSDKQWYLTQRLLEHHHHHH” as the sequence, how does the “soluble on expression in E. coli” value read?
**A.** Its value is “not soluble”.
